In assay [1] the target is sgt1b_arath SGT1B (UniProt Q9SUT5).
In assay [2] the target is rar1_arath RAR1 (UniProt Q9SE33).
Chain of rar1_arath RAR1 (Q9SE33 whole entry): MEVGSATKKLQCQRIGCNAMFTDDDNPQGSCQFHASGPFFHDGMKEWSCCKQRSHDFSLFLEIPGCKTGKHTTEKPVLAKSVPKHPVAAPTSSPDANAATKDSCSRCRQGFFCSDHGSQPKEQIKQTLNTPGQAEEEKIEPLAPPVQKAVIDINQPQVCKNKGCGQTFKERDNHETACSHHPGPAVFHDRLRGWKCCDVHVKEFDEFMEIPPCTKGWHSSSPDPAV

Chain of sgt1b_arath SGT1B (Q9SUT5 whole entry): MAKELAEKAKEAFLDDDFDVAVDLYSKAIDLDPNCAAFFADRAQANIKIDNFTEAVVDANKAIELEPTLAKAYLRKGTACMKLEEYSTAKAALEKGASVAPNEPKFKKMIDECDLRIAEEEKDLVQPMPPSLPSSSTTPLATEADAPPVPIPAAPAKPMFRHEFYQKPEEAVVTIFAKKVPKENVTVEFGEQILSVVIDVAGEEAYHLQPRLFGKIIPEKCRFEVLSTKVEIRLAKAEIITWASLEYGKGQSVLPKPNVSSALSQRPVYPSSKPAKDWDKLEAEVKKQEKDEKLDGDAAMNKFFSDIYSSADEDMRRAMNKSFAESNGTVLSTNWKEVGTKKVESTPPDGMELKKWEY
Chain of Heat shock protein 90-2 (Arabidopsis thaliana (Mouse-ear cress)), P55737 A42T (P55737 whole entry A42T): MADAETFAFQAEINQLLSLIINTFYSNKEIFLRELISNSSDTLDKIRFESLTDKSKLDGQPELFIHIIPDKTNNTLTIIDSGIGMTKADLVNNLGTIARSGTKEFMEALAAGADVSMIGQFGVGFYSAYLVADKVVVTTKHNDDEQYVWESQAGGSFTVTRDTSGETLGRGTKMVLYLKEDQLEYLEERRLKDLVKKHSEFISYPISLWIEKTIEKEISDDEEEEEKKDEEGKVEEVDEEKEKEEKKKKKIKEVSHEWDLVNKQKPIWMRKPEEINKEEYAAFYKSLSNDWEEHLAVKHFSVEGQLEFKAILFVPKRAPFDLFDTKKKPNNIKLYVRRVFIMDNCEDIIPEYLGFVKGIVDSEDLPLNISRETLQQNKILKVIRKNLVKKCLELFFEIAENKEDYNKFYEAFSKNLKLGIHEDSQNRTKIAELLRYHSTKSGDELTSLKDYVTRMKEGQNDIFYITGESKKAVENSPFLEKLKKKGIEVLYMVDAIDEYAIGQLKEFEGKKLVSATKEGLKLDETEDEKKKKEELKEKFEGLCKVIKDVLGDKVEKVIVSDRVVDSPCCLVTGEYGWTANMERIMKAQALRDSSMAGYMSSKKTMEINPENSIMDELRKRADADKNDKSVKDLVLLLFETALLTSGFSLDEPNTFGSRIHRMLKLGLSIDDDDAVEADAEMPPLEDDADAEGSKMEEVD
Chain of Heat shock protein 90-2 (Arabidopsis thaliana (Mouse-ear cress)), P55737 R337C (P55737 whole entry R337C): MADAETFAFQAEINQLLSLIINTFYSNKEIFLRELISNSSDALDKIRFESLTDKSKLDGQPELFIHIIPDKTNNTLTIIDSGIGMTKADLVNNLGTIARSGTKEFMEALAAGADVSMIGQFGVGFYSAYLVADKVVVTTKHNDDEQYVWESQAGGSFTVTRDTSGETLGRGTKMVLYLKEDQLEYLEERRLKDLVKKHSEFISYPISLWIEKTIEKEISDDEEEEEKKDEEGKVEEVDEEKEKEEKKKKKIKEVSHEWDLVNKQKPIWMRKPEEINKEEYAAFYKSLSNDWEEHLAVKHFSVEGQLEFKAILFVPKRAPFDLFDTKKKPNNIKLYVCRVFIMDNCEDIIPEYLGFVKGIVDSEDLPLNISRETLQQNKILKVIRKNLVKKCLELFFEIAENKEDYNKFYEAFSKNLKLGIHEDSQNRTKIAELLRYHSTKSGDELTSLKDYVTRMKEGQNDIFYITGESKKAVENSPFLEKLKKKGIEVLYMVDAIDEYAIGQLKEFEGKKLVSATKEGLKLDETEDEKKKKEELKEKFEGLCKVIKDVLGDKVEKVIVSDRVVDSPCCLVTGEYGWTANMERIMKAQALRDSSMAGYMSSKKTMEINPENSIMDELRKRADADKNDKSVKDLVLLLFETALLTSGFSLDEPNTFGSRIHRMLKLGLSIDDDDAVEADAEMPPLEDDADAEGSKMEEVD
Chain of Heat shock protein 90-2 (Arabidopsis thaliana (Mouse-ear cress)), P55737 D80N (P55737 whole entry D80N): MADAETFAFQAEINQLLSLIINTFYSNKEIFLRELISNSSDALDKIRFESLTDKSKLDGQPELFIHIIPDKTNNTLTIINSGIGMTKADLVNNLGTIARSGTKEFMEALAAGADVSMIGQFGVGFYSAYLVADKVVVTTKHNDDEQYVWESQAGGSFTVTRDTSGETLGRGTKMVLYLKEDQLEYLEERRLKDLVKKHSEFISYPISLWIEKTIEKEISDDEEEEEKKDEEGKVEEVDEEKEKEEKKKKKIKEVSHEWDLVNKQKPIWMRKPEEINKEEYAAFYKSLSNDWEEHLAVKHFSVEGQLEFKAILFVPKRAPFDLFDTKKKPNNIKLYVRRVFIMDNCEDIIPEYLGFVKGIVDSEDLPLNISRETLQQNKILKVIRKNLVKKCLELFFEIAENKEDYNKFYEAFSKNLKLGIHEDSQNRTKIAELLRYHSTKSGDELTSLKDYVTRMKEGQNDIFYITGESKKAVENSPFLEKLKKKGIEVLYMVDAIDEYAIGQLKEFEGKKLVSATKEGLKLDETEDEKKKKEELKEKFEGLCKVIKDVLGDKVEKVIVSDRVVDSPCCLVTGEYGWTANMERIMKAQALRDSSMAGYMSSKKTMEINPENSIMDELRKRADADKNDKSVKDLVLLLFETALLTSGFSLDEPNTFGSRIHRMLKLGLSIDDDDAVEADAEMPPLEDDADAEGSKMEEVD
Chain of Heat shock protein 90-2 (Arabidopsis thaliana (Mouse-ear cress)), P55737 G95E (P55737 whole entry G95E): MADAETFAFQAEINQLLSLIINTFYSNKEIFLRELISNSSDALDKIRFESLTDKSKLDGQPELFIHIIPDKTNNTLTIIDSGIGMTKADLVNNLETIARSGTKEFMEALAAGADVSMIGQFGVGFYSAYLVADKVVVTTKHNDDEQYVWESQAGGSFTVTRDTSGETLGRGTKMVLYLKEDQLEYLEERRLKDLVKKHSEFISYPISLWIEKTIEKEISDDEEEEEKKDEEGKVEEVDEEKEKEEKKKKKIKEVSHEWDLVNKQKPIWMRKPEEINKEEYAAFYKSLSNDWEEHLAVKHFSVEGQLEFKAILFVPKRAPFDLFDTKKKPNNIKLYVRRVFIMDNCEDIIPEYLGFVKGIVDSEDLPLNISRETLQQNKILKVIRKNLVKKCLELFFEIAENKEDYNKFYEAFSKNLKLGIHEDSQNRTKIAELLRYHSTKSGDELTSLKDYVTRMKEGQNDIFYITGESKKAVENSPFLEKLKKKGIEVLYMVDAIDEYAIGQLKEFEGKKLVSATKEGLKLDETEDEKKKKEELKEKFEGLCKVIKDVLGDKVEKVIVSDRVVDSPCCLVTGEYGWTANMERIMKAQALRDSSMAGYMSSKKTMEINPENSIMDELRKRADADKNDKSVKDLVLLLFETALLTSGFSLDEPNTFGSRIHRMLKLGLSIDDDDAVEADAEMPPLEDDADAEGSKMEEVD
Chain of Heat shock protein 90-2 (Arabidopsis thaliana (Mouse-ear cress)), P55737 S100F (P55737 whole entry S100F): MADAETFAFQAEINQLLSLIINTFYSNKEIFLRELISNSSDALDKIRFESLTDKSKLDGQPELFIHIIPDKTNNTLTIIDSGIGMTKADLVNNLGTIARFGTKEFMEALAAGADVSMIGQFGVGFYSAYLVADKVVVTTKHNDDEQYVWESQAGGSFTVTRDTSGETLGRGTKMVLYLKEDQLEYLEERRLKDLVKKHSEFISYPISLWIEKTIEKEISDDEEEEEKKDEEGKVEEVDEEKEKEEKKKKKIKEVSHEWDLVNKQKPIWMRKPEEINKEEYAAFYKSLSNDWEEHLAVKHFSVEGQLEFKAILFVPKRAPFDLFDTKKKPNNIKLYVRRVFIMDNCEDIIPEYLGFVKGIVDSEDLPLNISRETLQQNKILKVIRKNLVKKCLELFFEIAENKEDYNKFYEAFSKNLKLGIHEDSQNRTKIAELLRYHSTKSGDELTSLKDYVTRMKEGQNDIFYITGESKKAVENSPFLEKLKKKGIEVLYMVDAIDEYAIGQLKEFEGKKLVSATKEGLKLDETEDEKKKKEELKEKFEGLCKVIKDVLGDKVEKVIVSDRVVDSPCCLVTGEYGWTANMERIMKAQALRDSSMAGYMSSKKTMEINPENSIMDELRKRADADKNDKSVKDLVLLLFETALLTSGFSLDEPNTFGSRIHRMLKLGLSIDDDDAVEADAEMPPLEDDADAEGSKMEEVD

Take “Heat shock protein 90-2 (Arabidopsis thaliana (Mouse-ear cress)), P55737 S100F”: in assay [1], the “effect of a mutation on the interaction” value is given as “disrupting interaction strength”. For the substance “Heat shock protein 90-2 (Arabidopsis thaliana (Mouse-ear cress)), P55737 G95E”, the entries for the “effect of a mutation on the interaction” value in assay [1] and in assay [2] were “disrupting interaction strength” and “decreasing interaction strength”, respectively. Take “Heat shock protein 90-2 (Arabidopsis thaliana (Mouse-ear cress)), P55737 R337C”: the “effect of a mutation on the interaction” value in assay [1] is given as “decreasing interaction strength”; in assay [2], “disrupting interaction strength”. For “Heat shock protein 90-2 (Arabidopsis thaliana (Mouse-ear cress)), P55737 A42T”, in that order: “disrupting interaction strength” and “disrupting interaction strength”. Turning to “Heat shock protein 90-2 (Arabidopsis thaliana (Mouse-ear cress)), P55737 D80N”, the “effect of a mutation on the interaction” value in assay [1] and in assay [2] was “disrupting interaction strength” each time.

The values are drawn from IntAct's records for PubMed 19487680.
